Measurements published in patent US20200308290A1 (AbbVie / Abbott, published 2020).
Like-named read-outs stand apart in the source and are kept apart here. Each block holds one binder with its values, some of them ahead of it.

Columns and labels:
[1] = molecular target: T1, human CD25 (human, UniProt P01589 22-213, limits assumed); assay: competition ELISA vs biotinylated daclizumab, fold over wild type
T1 construct: Recombinant soluble human CD25, coated on plates (ELISA) or injected over captured antibody (BIAcore); also called hCD25; IL2-R alpha
T1 sequence (looked up): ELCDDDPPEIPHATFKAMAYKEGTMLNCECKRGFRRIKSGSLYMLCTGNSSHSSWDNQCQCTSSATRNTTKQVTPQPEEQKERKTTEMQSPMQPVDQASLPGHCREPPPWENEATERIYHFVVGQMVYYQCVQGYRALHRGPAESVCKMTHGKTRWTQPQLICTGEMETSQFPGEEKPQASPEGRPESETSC

[2] = molecular target: T1, human CD25; assay: SPR (BIAcore)
[3] = molecular target: T2, recombinant human CD25 (IL2-Rα) (human, UniProt P01589 22-213, limits assumed); assay: SPR (BIAcore), antibody captured by anti-human Fc, soluble human CD25 as analyte, n=3
T2 construct: Bought protein; also called recombinant human IL2-Rα; recombinant soluble human CD25
T2 sequence (looked up): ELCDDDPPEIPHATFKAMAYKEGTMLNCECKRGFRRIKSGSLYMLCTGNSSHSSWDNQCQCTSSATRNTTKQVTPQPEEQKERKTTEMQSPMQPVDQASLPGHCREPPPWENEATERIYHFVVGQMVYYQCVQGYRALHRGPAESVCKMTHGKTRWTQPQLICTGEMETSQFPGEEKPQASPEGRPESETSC
Experimental: For this capture approach, 30 μg/ml of GAHFc was immobilized to achieve a high response unit (20,000 RU) on each flow cell on the Research-grade CMS sensor chip using the BIAcore amine coupling reagents (N-ethyl-N′-dimethylamino-propylcarbodiimide, EDC; N-hydroxysuccinimide, NHS; and ethanolamine HCl, pH 8.5). […] A 3 min association phase of CD25 was followed by a 15 min injection of HBS-P running buffer (10 mM HEPES, 150 mM sodium chloride, 0.005% P-20 surfactant, pH 7.4) to monitor dissociation for each binding cycle, with a different CD25 concentration per cycle. The surface was regenerated with 20 mM HCl at 100 μl/min flow rate at the end of each cycle. […] Double referencing was applied in each analysis to eliminate background responses from reference surface and buffer only control (0 nM). […] Each set of experiments was performed three times to assess the standard deviation of the data.
Modified antibody proteins were tested for binding affinity using a surface plasmon resonance assay format in a BIAcore device. […] Recombinant soluble human CD25 was flowed over the sensor chip and changes in mass were detected.

[4] = molecular target: T2, recombinant human CD25 (IL2-Rα); assay: SPR (BIAcore), affinity benchmarked to DAC-HYP, n=3
Experimental: Double referencing was applied in each analysis to eliminate background responses from reference surface and buffer only control (0 nM). […] Each set of experiments was performed three times to assess the standard deviation of the data.
Modified antibody proteins were tested for binding affinity using a surface plasmon resonance assay format in a BIAcore device. […] Recombinant soluble human CD25 was flowed over the sensor chip and changes in mass were detected. The data was interpreted to yield kₐ, kd and KD values for all the proteins tested.

[5] = molecular target: T2, recombinant human CD25 (IL2-Rα); assay: direct-binding ELISA on plate-coated recombinant human IL2-Rα; EC50 benchmarked to DAC-HYP
Experimental: MaxiSorp ELISA plates (Nunc Nalge International) were coated overnight at 4° C. with 100 μl/well of a 50 ng/ml solution of recombinant human IL2-Rα (R&D Systems or PeproTech, Inc., Rocky Hill, N.J.) in DPBS (Invitrogen Corporation), washed with Wash Buffer (PBS containing 0.1% Tween 20), and blocked for 30 min at room temperature with 200 μl/well of SuperBlock Blocking Buffer in TBS (Pierce Chemical Company). After washing with Wash Buffer, test antibodies (starting at 4 μg/ml and serially diluted 3-fold) in 100 μl/well of ELISA buffer (PBS containing 1% BSA and 0.1% Tween 20) were added in duplicate. After incubating the plates for 1 hr at room temperature, and washing with Wash Buffer, bound antibodies were detected using 100 μl/well of a 1:20,000 dilution of HRP-conjugated goat anti-human IgG (Southern Biotechnology Associates, Inc.) in ELISA buffer. After incubating for 1 hr at room temperature, and washing with Wash Buffer, color development was performed by adding 150 μl/well of TMB Peroxidase Substrate/Peroxidase Solution B (KPL, Inc.). After incubating for 8 min at room temperature, color development was stopped by adding 50 μl/well of 2 N sulfuric acid. Absorbance was read at 450 nm.

[6] = molecular target: T3, human CD25 on cells (human, UniProt P01589 22-272); assay: cell-based or functional assay
T3 sequence (looked up): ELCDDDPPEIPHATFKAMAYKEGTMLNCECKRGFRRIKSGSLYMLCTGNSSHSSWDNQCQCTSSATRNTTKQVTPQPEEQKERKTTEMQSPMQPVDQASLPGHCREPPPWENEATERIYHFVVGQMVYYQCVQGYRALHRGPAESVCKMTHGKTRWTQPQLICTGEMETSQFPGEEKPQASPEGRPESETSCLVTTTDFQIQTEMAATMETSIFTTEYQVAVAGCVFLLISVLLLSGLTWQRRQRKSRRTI

[7] = molecular target: T1, human CD25; assay: competition ELISA vs biotinylated daclizumab, fold over wild type; remark: listed apart in the source
[8] = molecular target: T1, human CD25; assay: SPR (BIAcore); remark: listed apart in the source
[9] = molecular target: T4, cynomolgous monkey CD25 (cynomolgous monkey); assay: SPR (BIAcore), cynomolgous CD25
T4 construct: also called cmCD25; cm

[10] = molecular target: T5, human CD25 (recombinant soluble) (human, UniProt P01589 22-240); assay: competition ELISA on plate-coated CD25: competitor antibody titrated against biotinylated daclizumab, OD415
T5 construct: extracellular domain; bought protein; also called IL2-Rα; recombinant human IL2-Rα
T5 sequence (looked up): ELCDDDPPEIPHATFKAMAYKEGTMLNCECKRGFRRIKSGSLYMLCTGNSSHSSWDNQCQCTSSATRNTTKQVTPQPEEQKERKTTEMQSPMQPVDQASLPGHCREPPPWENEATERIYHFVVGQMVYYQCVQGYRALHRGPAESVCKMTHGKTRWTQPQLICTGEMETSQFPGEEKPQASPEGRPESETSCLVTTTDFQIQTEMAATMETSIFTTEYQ

ELISA fold improvement [1]: 3.47 fold
Kd [2]: 0.138 nM
B1: Variant C11 (antibody, name in Kabat numbering, V domains shown)
VH: QVQLVQSGAEVKKPGSSVKVSCKASGYTFTSYRMHWVRQAPGQGLEWIGYISPKRGYTQYNQKFKDKATITADESTNTAYMELSSLRSEDTAVYYCARGGGVFDYWGQGTLVTVSS
VL: DIQMTQSPSTLSASVGDRVTITCSASSSISYMHWYQQKPGKAPKLLIYTTSNLASGVPARFSGSGSGTEFTLTISSLQPDDFATYYCHQRSTYPLTFGQGTKVEVK
notes: Isotype as printed: G1 fa

Kd [3]: 0.493 nM
koff [3]: 0.000183 s⁻¹
kon [3]: 371000 M⁻¹ s⁻¹
Relative % KD [4]: 100%
Relative % Potency [5]: 109%
B2: DAC I48V (antibody, IgG1, name in Kabat numbering, V domains shown)
VH: QVQLVQSGAEVKKPGSSVKVSCKASGYTFTSYRMHWVRQAPGQGLEWVGYINPSTGYTEYNQKFKDKATITADESTNTAYMELSSLRSEDTAVYYCARGGGVFDYWGQGTLVTVSS
VL: DIQMTQSPSTLSASVGDRVTITCSASSSISYMHWYQQKPGKAPKLLIYTTSNLASGVPARFSGSGSGTEFTLTISSLQPDDFATYYCHQRSTYPLTFGQGTKVEVK
notes: E.HAT variant, IgG1/kappa

Kit225 (fold improvement in inhibition of IL2-induced Kit225 proliferation) [6]: 3.6 fold
PBMC (fold improvement in inhibition of IL2-induced PHA blast proliferation) [6]: 5.8 fold
ELISA fold improvement [7]: 8.2 fold
Kd [8]: 0.0095 nM
Kd [9]: 0.1 nM
B3: Variant C38 (antibody, name in Kabat numbering, V domains shown)
VH: QVQLVQSGAEVKKPGSSVKVSCKASGYTFTSYRMHWVRQAPGQGLEWMGYISPRKGYTEYNQKFKDKATITADESTNTAYMELSSLRSEDTAVYYCARGGGVFDYWGQGTLVTVSS
VL: DIQMTQSPSTLSASVGDRVTITCSASSSISYMHWYQQKPGKAPKLLIYTTSNLASGVPARFSGSGSGTEFTLTISSLQPDDFATYYCHQRSTYPLTFGQGTKVEVK
notes: Isotype as printed: G2M3.QL

EC50 [10]: 1.18 µg/mL
B4: daclizumab VH and NuhuTacVL (antibody, V domains shown)
VH: QVQLVQSGAEVKKPGSSVKVSCKASGYTFTSYRMHWVRQAPGQGLEWIGYINPSTGYTEYNQKFKDKATITADESTNTAYMELSSLRSEDTAVYYCARGGGVFDYWGQGTLVTVSS
VL: EIVLTQSPATLSLSPGERATLTCSASSSISYMHWFQQKPGQAPRLLIYTTSNLASGIPARFSGSGSGTDYTLTISSLEPEDFAVYYCHQRSTYPLTFGQGTKVEIK
notes: combination antibody

ELISA fold improvement [1]: 3.97 fold
Kd [2]: 0.181 nM
B5: Variant C9 (antibody, name in Kabat numbering, V domains shown)
VH: QVQLVQSGAEVKKPGSSVKVSCKASGYTFTSYRMHWVRQAPGQGLEWIGYIRPKRGYTQYNQKFKDKATITADESTNTAYMELSSLRSEDTAVYYCARGGGVFDYWGQGTLVTVSS
VL: DIQMTQSPSTLSASVGDRVTITCSASSSISYMHWYQQKPGKAPKLLIYTTSNLASGVPARFSGSGSGTEFTLTISSLQPDDFATYYCHQRSTYPLTFGQGTKVEVK
notes: Isotype as printed: G1 fa

ELISA fold improvement [1]: 3.91 fold
Kd [2]: 0.244 nM
B6: Variant C10 (antibody, name in Kabat numbering, V domains shown)
VH: QVQLVQSGAEVKKPGSSVKVSCKASGYTFTSYRMHWVRQAPGQGLEWIGYIRPRRGYTQYNQKFKDKATITADESTNTAYMELSSLRSEDTAVYYCARGGGVFDYWGQGTLVTVSS
VL: DIQMTQSPSTLSASVGDRVTITCSASSSISYMHWYQQKPGKAPKLLIYTTSNLASGVPARFSGSGSGTEFTLTISSLQPDDFATYYCHQRSTYPLTFGQGTKVEVK
notes: Isotype as printed: G1 fa

PBMC (fold improvement in inhibition of IL2-induced PHA blast proliferation) [6]: 7.7 fold
ELISA fold improvement [7]: 6.8 fold
Kd [8]: 0.012 nM
Kd [9]: 0.074 nM
B7: Variant C40 (antibody, name in Kabat numbering, V domains shown)
VH: QVQLVQSGAEVKKPGSSVKVSCKASGYTFTSYRMHWVRQAPGQGLEWMGYISPRKGYTEYNQKFKDKATITADESTNTAYMELSSLRSEDTAVYYCARGGGVFDYWGQGTLVTVSS
VL: DIQMTQSPSTLSASVGDRVTITCSASSSISYMHWYQQKPGKAPKLLIYTTSELASGVPARFSGSGSGTEFTLTISSLQPDDFATYYCHQRSTYPLTFGQGTKVEVK
notes: Isotype as printed: G2M3.QL
